From patent US20120171123A1, “USES AND COMPOSITIONS FOR TREATMENT OF RHEUMATOID ARTHRITIS” (priority 2006, published 2012)
Read-outs that look alike come from different tables or passages of the source. Marks after values point to notes of the source that are not given here.

How the values were obtained:
adult patients with RA = experiment: Study 1: HAQ change by CRP category; format: in vivo, human
Experimental: 407 patients with active RA enrolled in the 2 study arms. Of these patients, 299 (73.5%) patients completed the study until Week 52 and were evaluated.
Patients were grouped into three cohorts based on baseline CRP concentrations: low (<1 mg/dL); intermediate (1-4 mg/dL); and high (>4 mg/dL). Analyses were further conducted in two categories of patients according to their change in CRP concentrations at Week 12: those with a ≧20% decrease in CRP from baseline; or those with a <20% decrease in CRP from baseline. The following efficacy and radiographic measures were analyzed at Week 52 in the three baseline CRP categories and in the two Week 12 change in CRP categories: DAS28, ACR 20/50/70, Health assessment questionnaire (HAQ), and Total Sharp score (TSS).

[1] = test system: RA patients treated with adalimumab in clinical trials in North America and Europe
Experimental: The rate of TB was calculated for the period before screening was initiated (primarily Phase I trials) and the period after screening was implemented. The screening program consisted of a clinical interview, a tuberculin skin test, and, in most patients, a chest X-ray (CXR). The definition of PPD-positive depended on local country-specific guidelines. For those people who were PPD-positive, or for whom the investigator felt the risk of TB reactivation was high, INH was given for prophylaxis.
The methodology differed among protocols. For instance, in Europe and Australia, it was initially used CXR only, and in later studies, CXR and purified protein derivative skin test (PPD) were both used. By contrast, in US and Canada, CXR and PPD were both used.

patients with RA = test system: patients with RA
Description: The ADA pivotal trials were Study I, Study I (both ADA+MTX in MTX partial responders), Study 2 (ADA monotherapy) and Study K (ADA added to standard of care). Patients from the Phase I-III controlled clinical trials of ADA in RA, including the pivotals, were allowed to receive ADA as long-term, open-label therapy in 3 extension studies: 1) Study 18, for ADA monotherapy in the EU, 2) Study 20, for ADA with MTX in NA, and 3) the extension of Study 1, in NA. […] Adverse events are classified as “serious” adverse events based on the following regulatory criteria: fatal, life-threatening, requires inpatient hospitalization, prolongs hospitalization, causes congenital anomaly/birth defect, results in persistent or significant disability/incapacity, an important medical event that jeopardizes the patient and requires medical/surgical intervention to prevent another serious outcome. Serious infections (SI) are defined as “serious adverse events” that are coded under “Infections and Infestations” in the MedDRA coding system. […] 1, 2005 were analyzed in the report described herein. Non-serious infections were not included in this analysis. Serious infections reported during these trials were tabulated and rates were calculated as events per patient-year (E/PY). […] Rates of SI were determined for subsets of patients who, at the time of the SI, had diabetes, or were using concomitant steroids or concomitant MTX.

[2] = US/Canada and Europe RA trials through December 2004
[3] = open-label trials, N = 2504, 7951 PY

**Q.** Which results are given for CN(Cc1cnc2nc(N)nc(N)c2n1)c1ccc(C(=O)N[C@@H](CCC(=O)O)C(=O)O)cc1 [mtx alone, methotrexate]?
**A.** mean change in HAQ (adult patients with RA; week 52, <20% decrease in CRP at week 12): −0.29; HAQ mean change (adult patients with RA; week 52, baseline CRP 1-4 mg/dL): −0.4; HAQ mean change (adult patients with RA; week 52, baseline CRP <1 mg/dL): −0.4; HAQ mean change (adult patients with RA; week 52, baseline CRP >4 mg/dL): −0.3; mean change in HAQ (adult patients with RA; week 52, ≧20% decrease in CRP at week 12): −0.48

**Q.** How did the “TB cases: Culture positive” value [1, 2] turn out when “adalimumab: human anti-TNF mAb (HUMIRA, Abbott Laboratories), described in U.S. Pat. No. 6,090,382 as D2E7” was run?
**A.** 62%

**Q.** What about the “TB cases: Extrapulmonary” value [1, 2] of the same compound?
**A.** 65%

**Q.** And the “TB: Total Cases” value [1, 2]?
**A.** 34

**Q.** What about the “TB cases: Median months from treatment to diagnosis (range)” value ([1]; US/Canada and Europe RA trials through December 2004, range 1-54) of the same compound?
**A.** 7.2 months (1-54)

**Q.** And the “cases of TB” value ([1]; after screening)?
**A.** 27 cases

**Q.** And the “rate of TB” value ([1]; after screening, 14,010 pt-yrs)?
**A.** 0.0019 /pt-yr

**Q.** What about the “rate of TB” value ([1]; after screening, Europe) of the same compound?
**A.** 0.0027

**Q.** And the “rate of TB” value ([1]; after screening, North America)?
**A.** 0.0008

**Q.** And the “cases of TB” value ([1]; before screening)?
**A.** 7 cases

**Q.** What about the “rate of TB” value ([1]; before screening, 534 pt-yrs) of the same compound?
**A.** 0.013 /pt-yrs

**Q.** And the “reduction in the rate of developing TB with screening” value ([1]; human, in vivo)?
**A.** 85%

**Q.** What about the “TB cases: Outcome Resolved” value ([1]; of 34 cases, one patient died of unrelated causes) of the same compound?
**A.** 32**

**Q.** And the “median time to the development of TB” value ([1]; range 14-1636)?
**A.** 167 days

**Q.** What about the serious infection rate (patients with RA; 146 patients with diabetes, 427 PY) of the same compound?
**A.** 0.049 /PY

**Q.** And the “patients who experienced a serious infection” value (patients with RA; 285 of 2504 patients)?
**A.** 11%

**Q.** What about the serious infection rate (patients with RA; 2504 patients, 7951 PY, to Mar. 1, 2005) of the same compound?
**A.** 0.045 /PY

**Q.** And the “rate of serious infections” value (patients with RA; all patients)?
**A.** 4.5 events per 100 PY

**Q.** And the serious infection rate (patients with RA; blinded controlled phases of pivotal trials, 1380 patients)?
**A.** 0.042 /PY

**Q.** And the Pneumonia (patients with RA; human, in vivo)?
**A.** 64 events

**Q.** What about the cellulitis (patients with RA; human, in vivo) of the same compound?
**A.** 29 events

**Q.** And the Septic arthritis (patients with RA; open-label trials)?
**A.** 37 events

**Q.** And the “Patients with serious infections, %” value (patients with RA; [3])?
**A.** 11.4%

**Q.** And the “Serious infection Cellulitis: number of events E” value (patients with RA; [3])?
**A.** 29

**Q.** And the “Serious infection Cellulitis: rate (E/100PY)” value (patients with RA; [3])?
**A.** 0.4 E/100PY

**Q.** And the “Serious infection Pneumonia: number of events E” value (patients with RA; [3])?
**A.** 64

**Q.** What about the “Serious infection Pneumonia: rate (E/100PY)” value (patients with RA; [3]) of the same compound?
**A.** 0.8 E/100PY

**Q.** What about the “Serious infection Septic Arthritis: number of events E” value (patients with RA; [3]) of the same compound?
**A.** 37

**Q.** And the “Serious infection Septic Arthritis: rate (E/100PY)” value (patients with RA; [3])?
**A.** 0.5 E/100PY

**Q.** And the “rate of serious infections” value (patients with RA; with diabetes mellitus)?
**A.** 4.9 events per 100 PY

**Q.** And the “rate of serious infections” value (patients with RA; without diabetes mellitus)?
**A.** 4.5 events per 100 PY
